Source: patent US20190029975A1, “TOCOPHEROL AND TOCOTRIENOL QUINONE DERIVATIVES FOR INCREASING THIOSULFATE LEVELS OR DECREASING HYDROGEN SULFIDE LEVELS” (BIOELECTRON TECHNOLOGY CORPORATION, priority 2016, published 2019)

Substrate: CC(C)=CCC/C(C)=C/CC/C(C)=C/CC[C@@](C)(O)CCC1=C(C)C(=O)C(C)=C(C)C1=O
Test: Kinetic parameters of EPI-743 with SQOR
Assay type: biochemical, human
Settings: other: 200 micromolar Na2S, 2 mM Na2SO3, pH 7.5, reduced oxygen (<1000 ppm), 30.0 °C
Text: Human sulfide:quinone oxidoreductase (SQOR) protein was expressed and purified according to the method described in Jackson, M.R., et al. “Human Sulfide:Quinone Oxidoreductase Catalyzes the First Step in Hydrogen Sulfide Metabolism and Produces a Sulfane Sulfur Metabolite”, Biochemistry, Publication Date (Web): 1 Aug 2012, with the following exceptions: (1) a chaperone plasmid set (Plasmid pG-KJE8, plasmid #1 in catalog no. 3340) from Takara Bio Inc. (Japan) was used; (2) DHPC detergent was replaced with the following: 1.0% (w/v) CHAPS, 0.5% deoxycholate, or 1.0% octylmaltoside. The detergent was used in the initial lysis buffer, and removed in the IMAC purification step (no detergents in the storage conditions); (3) the ion-exchange (Q-sepharose) chromatography step was not used in the purification. The final SQOR protein contained amino acids 42-450 of the human SQOR protein.
Target protein was purified on IMAC to ≥90% purity (on Ni resin). Target protein was stored in 25 mM Tris pH 7.5, 150mM NaCl, 2 mM DTT 20% glycerol.
EPI-743 was assayed for activity with SQOR. […]
Briefly, SQOR enzyme, compound, inorganic sulfide (200 micromolar Na2S) and a sulfur acceptor (2 mM Na2SO3) were brought together. The reduction of the quinone substrate to hydroquinone product in the presence of sulfide ion, sulfur acceptor and SQOR enzyme was monitored by the decrease in quinone concentration over time, by observing the UV signal diagnostic for the specific quinone (See Table 3):
General assay conditions: Assays were performed in 100 mM Tris, pH 7.5, 0.5 mM EDTA. SQOR was included at approximately 5 nM, as estimated by total protein concentration determined by Bradford assay with BSA as standard and the estimated purity of SQOR from SDS-PAGE. […]
The kinetic parameters of compounds with SQOR were determined by varying the concentration of the compound over a suitable range and interrogating the impact of that variation on the enzymatic rate.
The parameters kcat and Km, for example, can be determined by nonlinear fitting of the rate data to the Michaelis-Menten equation: […]

B1: Human sulfide:quinone oxidoreductase (SQOR) (Homo sapiens) (protein)
chain: NHYEVLVLGGGSGGITMAARMKRKVGAENVAIVEPSERHFYQPIWTLVGAGAKQLSSSGRPTASVIPSGVEWIKARVTELNPDKNCIHTDDDEKISYRYLIIALGIQLDYEKIKGLPEGFAHPKIGSNYSVKTVEKTWKALQDFKEGNAIFTFPNTPVKCAGAPQKIMYLSEAYFRKTGKRSKANIIFNTSLGAIFGVKKYADALQEIIQERNLTVNYKKNLIEVRADKQEAVFENLDKPGETQVISYEMLHVTPPMSPPDVLKTSPVADAAGWVDVDKETLQHRRYPNVFGIGDCTNLPTSKTAAAVAAQSGILDRTISVIMKNQTPTKKYDGYTSCPLVTGYNRVILAEFDYKAEPLETFPFDQSKERLSMYLMKADLMPFLYWNMMLRGYWGGPAFLRKLFHLGMS
notes: The final SQOR protein contained amino acids 42-450 of the human SQOR protein; His tag (inferred from IMAC purification on Ni resin); made in house; E. coli is inferred from the Takara chaperone plasmid pG-KJE8 and from own knowledge of the cited Jackson et al. 2012 method
Km: 200 µM | kcat: 76 s⁻¹ | kcat/Km: 400000 M⁻¹ s⁻¹
